In patent publication EP3717020B1:

Target: endogenous RAS proteins in HeLa cells
Test: cell-based or functional assay

Row | Substance | EC50 of loss of RAS proteins in HeLa cells (anti-RAS immunoblot) [pM] | potency of RAS loss in HeLa cells against RRSP-dta-dtB [fold] | EC50 of loss of total RAS proteins in HeLa cells (24 h, anti-RAS immunoblot) [pM]
1 | RRSP-Δdta-dtB (enzyme) | 1 | 300 | 
2 | RRSP-dta-dtB (enzyme) |  |  | 250
3 | RRSP-APD-Δdta-dtB (enzyme) | 1 | 300 | 
